Measured values reported in the supplement of paper PMC10724198.
± gives the standard deviation of the averaged measurements.

Tested on: Saccharomyces cerevisiae
Experiment: protein stability index of tFT-peptide fusion (C-terminal peptide) (PSI (0-1 scale)); higher = more stable (slower turnover)
Conditions: genetic background: wild type; temperature: 30 C
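Further: PSI is a weighted mean of sequencing reads over stability bins, variants kept only with over 10 reads, mCherry proximal and sfGFP distal, peptide attached via GGGS linker.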

Row | Sequence | protein stability index
1 | PFVAFLPPLSPP | 0.702 ± 0.037
2 | PFVSGFGRPGYC | 0.751 ± 0.039
3 | PGDPRARPRLCP | 0.71 ± 0.033
4 | PGLGVGATRCVH | 0.734 ± 0.018
5 | PGLPCRNRMPFR | 0.687 ± 0.0078
6 | PGNAEQGIAVHL | 0.626 ± 0.055
7 | PGNYVLSDPPLM | 0.715 ± 0.033
8 | PGPATKAPLRTL | 0.671 ± 0.018
9 | PGSILFRGVGAS | 0.691 ± 0.035
10 | PGVAGSLSLLRR | 0.722 ± 0.097
11 | PGVFEITPVMLI | 0.6949 ± 0.0055
12 | PHAMNPNTSRVL | 0.682 ± 0.008
13 | PHEKDKNMGKQK | 0.702 ± 0.085
14 | PHLHHPPPPISA | 0.603 ± 0.027
15 | PHPATSPVARPP | 0.678 ± 0.014
16 | PHPDPDHCHAPP | 0.713 ± 0.1
17 | PHPHLPPARSPP | 0.675 ± 0.019
18 | PHPPPPHPPPPP | 0.644 ± 0.027
19 | PHRPRDFALTPS | 0.6905 ± 0.0048
20 | PHRSTRIDVDPC | 0.837 ± 0.12
21 | PHRSVSRLTILS | 0.658 ± 0.012
22 | PHSDGVRLAEGF | 0.713 ± 0.077
23 | PHSTTGPPPPLT | 0.695 ± 0.041
24 | PHSVPPLTFPTS | 0.689 ± 0.037
25 | PHVGSGDGVMKA | 0.598 ± 0.038
26 | PHYRYLHPSPPP | 0.704 ± 0.0073

Row | Sequence | protein stability index
27 | PIELTLQRPPGV | 0.671 ± 0.031
28 | PIGLTCPASSVL | 0.692 ± 0.046
29 | PILFHIPHRHVP | 0.749 ± 0.25
30 | PIPLPLSPPLPT | 0.73 ± 0.011
31 | PIPPDGGSPPSP | 0.714
32 | PIPPDPPAYQGQ | 0.6426 ± 0.0064
33 | PIPPPPPPPSSP | 0.699 ± 0.0086
34 | PITKLHRHYARG | 0.6972 ± 0.0015
35 | PIWWSRSALLAE | 0.671 ± 0.023
36 | PKQMVVRRSRRP | 0.695 ± 0.07
37 | PKVRAGYSYEVM | 0.673 ± 0.019
38 | PKYKKKNNKKKT | 0.709 ± 0.058
39 | PLAGLWPCRSGS | 0.669 ± 0.016
40 | PLALRPPFSHGL | 0.698 ± 0.024
41 | PLAPNYPANTGT | 0.69 ± 0.021
42 | PLAPPTSASRFS | 0.6466 ± 0.0027
43 | PLAPYPPLPPPP | 0.69 ± 0.027
44 | PLCCHRSTGCTL | 0.676 ± 0.022
45 | PLCPPPPYPPRS | 0.745 ± 0.043
46 | PLFLSLPLSFPS | 0.697 ± 0.0058
47 | PLGDIRPSPRDS | 0.681 ± 0.0086
48 | PLILFLSLSRSV | 0.613 ± 0.066
49 | PLILRSLFIFPV | 0.641 ± 0.037
50 | PLLDPFFPLVFT | 0.58 ± 0.019
51 | PLLLPPVPPFCF | 0.674 ± 0.12
52 | PLLPPSDTCSLL | 0.718 ± 0.089

Row | Sequence | protein stability index
53 | PLLPSLPPLLAP | 0.651 ± 0.05
54 | PLLPSPLIPFSH | 0.688 ± 0.026
55 | PLLPSPPHSPTP | 0.657 ± 0.045
56 | PLLPSPPLPCFF | 0.765 ± 0.029
57 | PLLQALLPPAPP | 0.632 ± 0.026
58 | PLLSPLPSHPHP | 0.815 ± 0.058
59 | PLPAFPRLAIQP | 0.691 ± 0.021
60 | PLPAISPPPTLP | 0.758 ± 0.036
61 | PLPAPRHNALTT | 0.6137 ± 0.0045
62 | PLPASFPPFPTL | 0.802 ± 0.036
63 | PLPCPRGHDHPA | 0.688 ± 0.068
64 | PLPCSSLLVPLP | 0.627 ± 0.058
65 | PLPLASVTPPYL | 0.669 ± 0.0067
66 | PLPLPLASSFPS | 0.627 ± 0.059
67 | PLPLPPPPHPSL | 0.723 ± 0.041
68 | PLPLPPPPPLPL | 0.657 ± 0.041
69 | PLPLPPSPPFQF | 0.751 ± 0.011
70 | PLPPFPPHNLRA | 0.733 ± 0.082
71 | PLPPHRLPYPRL | 0.81 ± 0.025
72 | PLPPLPPPFLPP | 0.641 ± 0.1
73 | PLPPPAFPPLDP | 0.671 ± 0.021
74 | PLPPPLLPPSSS | 0.7302 ± 0.0013
75 | PLPPPLPPPSPP | 0.647 ± 0.033
76 | PLPPPPALILFP | 0.6856 ± 0.003
77 | PLPPPPIPLAPP | 0.708 ± 0.054
78 | PLPPPPPLLPTC | 0.669 ± 0.037

Row | Sequence | protein stability index
79 | PLPPPPPPPPLP | 0.767 ± 0.024
80 | PLPPPPPPSFPP | 0.769 ± 0.057
81 | PLPPPPTLSCTQ | 0.701 ± 0.11
82 | PLPPPRPLPTPL | 0.69 ± 0.055
83 | PLPPPSASPLPP | 0.539 ± 0.044
84 | PLPPPTSPPSPP | 0.749 ± 0.11
85 | PLPPSLRPALSP | 0.7188 ± 0.00078
86 | PLPPSPLPRPCP | 0.761 ± 0.054
87 | PLPRPPRLVFSS | 0.5 ± 0.012
88 | PLPRPPSPPPAP | 0.68 ± 0.12
89 | PLPRPVLPPLFS | 0.739 ± 0.073
90 | PLPSHPPRPLPP | 0.67 ± 0.05
91 | PLPSPPSPPPPP | 0.693 ± 0.0091
92 | PLPSQYANPMIL | 0.664 ± 0.0051
93 | PLPSSRSPSPPS | 0.711 ± 0.038
94 | PLPTSMNTHALV | 0.683 ± 0.079
95 | PLQPPHSPPFPP | 0.7 ± 0.028
96 | PLRFLLPLLLPF | 0.582 ± 0.0087
97 | PLRGPPPPPLPI | 0.677 ± 0.07
98 | PLSLIRFSAFQS | 0.486 ± 0.036
99 | PLSLPAPPPRPR | 0.654 ± 0.017
100 | PLSLPPPPPSLP | 0.723 ± 0.022
101 | PLSLPPRPFLHH | 0.735 ± 0.017
102 | PLSLSSPPLFLL | 0.639 ± 0.0006
103 | PLSPLHHCPLSP | 0.666 ± 0.039
104 | PLSPLPPSPGPS | 0.766 ± 0.051

Row | Sequence | protein stability index
105 | PLSPPLLPPPPP | 0.688 ± 0.014
106 | PLSPPLLPPTTL | 0.706 ± 0.086
107 | PLSPPLPRPPPL | 0.649 ± 0.11
108 | PLSPPPVNIPPT | 0.733 ± 0.039
109 | PLSPSFPPLSPP | 0.78 ± 0.12
110 | PLSRVEGRVPAI | 0.6663 ± 0.0039
111 | PLSSPFPPSHPL | 0.763 ± 0.029
112 | PLSVPHQPLCPV | 0.686 ± 0.028
113 | PLSVPPMSSLLP | 0.7202 ± 0.0068
114 | PLTFARLPPPTL | 0.678 ± 0.021
115 | PLTSIDTDPPHI | 0.723 ± 0.022
116 | PLWRPLALSHVS | 0.67 ± 0.012
117 | PLYRPCPGSRRA | 0.745 ± 0.0097
118 | PMIENQQIDKTN | 0.649 ± 0.0095
119 | PMMTKDEFNNRM | 0.702 ± 0.015
120 | PMRAALIIFLVR | 0.5 ± 0.1
121 | PMVETKVGGIAN | 0.705 ± 0.043
122 | PMYKYKTSQKDL | 0.6567 ± 0.0057
123 | PNFSLPSLPHFP | 0.747 ± 0.017
124 | PNPPPPRPTPTP | 0.6688 ± 0.0049
125 | PNVHMRVFELFM | 0.72 ± 0.054
126 | PPALLRLTSSAR | 0.702 ± 0.026
127 | PPALPPVPPYPL | 0.673 ± 0.073
128 | PPAPARFPFLPA | 0.6696 ± 0.001
129 | PPAPPEPRIVRR | 0.684 ± 0.076
130 | PPAPPFPAPPPR | 0.628 ± 0.028

Row | Sequence | protein stability index
131 | PPAPPHHPPPSS | 0.679 ± 0.036
132 | PPAPPPLPLPLF | 0.72 ± 0.0079
133 | PPARPDCGIRTP | 0.672 ± 0.026
134 | PPASLFFPPLSP | 0.756 ± 0.13
135 | PPASRPPPPTFL | 0.699 ± 0.047
136 | PPCPGPLPPPPP | 0.6663 ± 0.0025
137 | PPCPSSPHARPA | 0.69824 ± 0.00052
138 | PPCRRGRTHGVY | 0.685 ± 0.024
139 | PPDLPVPRPSFR | 0.571
140 | PPDPPLHPPPSS | 0.733 ± 0.13
141 | PPEPVRHTSGLS | 0.807 ± 0.059
142 | PPFLDLSLPHIC | 0.589 ± 0.016
143 | PPFPPPPRPADH | 0.741 ± 0.023
144 | PPFTPLPPSVPP | 0.686 ± 0.03
145 | PPFTPLSCLPPP | 0.708 ± 0.038
146 | PPGAPPYPSPPP | 0.569 ± 0.092
147 | PPGCPCPASTGS | 0.6916 ± 0.004
148 | PPGPGRAPVRPA | 0.623 ± 0.033
149 | PPGPLPTPPYPP | 0.545 ± 0.035
150 | PPGPPLPRPRRP | 0.694 ± 0.043
151 | PPGQPPARSSPV | 0.706 ± 0.013
152 | PPGYPLCLPLGF | 0.7018 ± 0.0035
153 | PPHAPLPPPLAL | 0.7219 ± 0.0072
154 | PPHAPPPPPHVP | 0.713 ± 0.039
155 | PPHLIPTLLSPP | 0.721 ± 0.02
156 | PPHLPPPRPKPP | 0.592 ± 0.028

Row | Sequence | protein stability index
157 | PPHQPRTPNSPP | 0.68 ± 0.034
158 | PPHRPPTRPRPR | 0.64 ± 0.0094
159 | PPHSSPPPPPPS | 0.715 ± 0.028
160 | PPHSTPPTGRPG | 0.753 ± 0.014
161 | PPIALTPRTPAP | 0.747 ± 0.097
162 | PPILHPPPDIPG | 0.701 ± 0.042
163 | PPISVIRKPTVL | 0.667 ± 0.066
164 | PPLARLASPSRL | 0.7006 ± 0.0036
165 | PPLARPPLPAPF | 0.6998 ± 0.0022
166 | PPLGITHPSFPS | 0.787 ± 0.025
167 | PPLGMPLYHPRP | 0.7426 ± 0.0021
168 | PPLGPTSARALA | 0.619 ± 0.014
169 | PPLLDLATYSSS | 0.697 ± 0.061
170 | PPLLPPLPFPPP | 0.74 ± 0.076
171 | PPLLTPPSTLFS | 0.661 ± 0.022
172 | PPLPFSRSPSSL | 0.69 ± 0.019
173 | PPLPLPLPPPTP | 0.767 ± 0.088
174 | PPLPPLPLAPPY | 0.6927 ± 0.005
175 | PPLPPLPPLSVS | 0.675 ± 0.029
176 | PPLPPPPASPPP | 0.589 ± 0.045
177 | PPLPPPPPLLPP | 0.6764 ± 0.0065
178 | PPLPPPSSPLFP | 0.714 ± 0.087
179 | PPLPPRPTPPPR | 0.711 ± 0.04
180 | PPLPSPPPPSSP | 0.7157 ± 0.0022
181 | PPLRFLSVSSSP | 0.6741 ± 0.003
182 | PPLRLASSPPPV | 0.736 ± 0.062

Row | Sequence | protein stability index
183 | PPLSCSPPLAPL | 0.695 ± 0.019
184 | PPLSLPSSCPSP | 0.652 ± 0.1
185 | PPLSPLSPLAPP | 0.712 ± 0.038
186 | PPLTPPPPTPPP | 0.635 ± 0.057
187 | PPLTPSPPRSFP | 0.651 ± 0.08
188 | PPNLYRGVQGPA | 0.682 ± 0.0099
189 | PPNPLPPAFTPP | 0.715 ± 0.027
190 | PPNPPPGPTVPF | 0.768 ± 0.084
191 | PPPALEPSPKEL | 0.781 ± 0.057
192 | PPPAPPPAIPHP | 0.687 ± 0.0073
193 | PPPAPPTFPLRS | 0.684 ± 0.087
194 | PPPAPRRTRRPS | 0.698 ± 0.047
195 | PPPARLSLPPPD | 0.694 ± 0.007
196 | PPPASRPPHPTL | 0.746 ± 0.026
197 | PPPFLTPPPPHS | 0.709 ± 0.026
198 | PPPFPLLPRYGF | 0.657 ± 0.066
199 | PPPFPPAPRHPP | 0.614 ± 0.013
200 | PPPFPPPTLPPP | 0.736 ± 0.039
201 | PPPFSPLPPGPP | 0.699 ± 0.0077
202 | PPPGPDGVASNF | 0.685 ± 0.053
